In article PMC10506259, “A glycosylated Phr1 protein is induced by calcium stress and its expression is positively controlled by the calcium/calcineurin signaling transcription factor Crz1 in Candida albicans”:

T1: 6xHis-Crz1 (CaCrz1) (Candida albicans, UniProt Q5A4H5 1-731)
T1 sequence: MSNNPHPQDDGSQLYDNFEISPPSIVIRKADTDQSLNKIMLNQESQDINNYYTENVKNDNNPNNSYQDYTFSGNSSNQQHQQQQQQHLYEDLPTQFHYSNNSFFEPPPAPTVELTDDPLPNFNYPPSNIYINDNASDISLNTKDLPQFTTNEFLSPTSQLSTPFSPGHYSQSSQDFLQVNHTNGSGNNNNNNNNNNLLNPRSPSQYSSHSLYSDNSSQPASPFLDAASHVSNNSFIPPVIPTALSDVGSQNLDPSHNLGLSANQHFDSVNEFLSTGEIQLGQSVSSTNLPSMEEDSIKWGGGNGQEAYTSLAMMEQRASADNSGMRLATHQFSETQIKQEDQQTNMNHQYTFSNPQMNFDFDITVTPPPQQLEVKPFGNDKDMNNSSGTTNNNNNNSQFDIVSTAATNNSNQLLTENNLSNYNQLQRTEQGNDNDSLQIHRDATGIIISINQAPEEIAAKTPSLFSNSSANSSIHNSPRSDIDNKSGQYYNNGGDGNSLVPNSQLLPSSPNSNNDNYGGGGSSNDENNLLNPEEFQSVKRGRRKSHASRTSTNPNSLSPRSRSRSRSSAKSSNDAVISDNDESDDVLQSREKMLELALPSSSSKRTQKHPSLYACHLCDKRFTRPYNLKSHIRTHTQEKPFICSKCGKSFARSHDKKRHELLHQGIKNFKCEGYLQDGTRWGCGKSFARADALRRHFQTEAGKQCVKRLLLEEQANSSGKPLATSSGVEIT

B1: EMSA_PHR1_F/R (PHR1 promoter CDRE probe) (dsDNA)
DNA 1: CCTTTCTCATAGGAATTCATCGACGCCTCATTCATACTAATATAATAGGT
DNA 2: ACCTATTATATTAGTATGAATGAGGCGTCGATGAATTCCTATGAGAAAGG
B2: unlabelled EMSA_PHR1_F/R (specific competitor) (dsDNA)
DNA 1: B1 DNA 1
DNA 2: B1 DNA 2

Columns and labels:
6xHis-Crz1 (CaCrz1) [1] = target: T1, 6xHis-Crz1 (CaCrz1); assay: EMSA; 1 ug protein; DIG Gel Shift Kit (Roche), per manufacturer; buffer, salt, pH and temperature not stated; conditions: protein: recombinant; tags: His6; label: DIG at 3' end; blunt
6xHis-Crz1 (CaCrz1) [2] = target: T1, 6xHis-Crz1 (CaCrz1); assay: competition; unlabelled probe abolished binding to DIG-labelled N1; 1 ug protein; DIG Gel Shift Kit (Roche), per manufacturer; buffer, salt, pH and temperature not stated; conditions: protein: recombinant; tags: His6; blunt

Binder	binding result (6xHis-Crz1 (CaCrz1) [1])	binding result (6xHis-Crz1 (CaCrz1) [2])
B1	binds	
B2		binds
